In paper PMC3758794 (Cell biochemistry and biophysics, 2013):

How the values were obtained:
UBE2W-WT (human) = UBE2W-WT (human) (UniProt Q96B02); assay: SEC
SEC = target: the molecule itself; assay: SEC

Chain of UBE2W-WT (Q96B02 whole entry): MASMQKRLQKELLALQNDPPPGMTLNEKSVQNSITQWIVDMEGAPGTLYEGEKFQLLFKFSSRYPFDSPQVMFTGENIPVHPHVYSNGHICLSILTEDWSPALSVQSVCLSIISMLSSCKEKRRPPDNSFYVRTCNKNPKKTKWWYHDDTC

stoichiometry N (UBE2W-WT (human)) | Molecule | stoichiometry N (SEC)
2 | UBE2W-WT (from UniProt Q96B02 1-151) (enzyme) | –
– | UBE2W-131Δ (truncation following Y131) (domain or fragment, human, UniProt Q96B02 1-131, looked up) MASMQKRLQKELLALQNDPPPGMTLNEKSVQNSITQWIVDMEGAPGTLYEGEKFQLLFKFSSRYPFDSPQVMFTGENIPVHPHVYSNGHICLSILTEDWSPALSVQSVCLSIISMLSSCKEKRRPPDNSFY | 2
